# From publication PMC5289526, “Crystal Structure and Catalytic Mechanism of CouO, a Versatile C-Methyltransferase from Streptomyces rishiriensis” (PLoS ONE, 2017)
# Biological target: the molecule itself
# Assay: SEC; last step of purification; HiLoad 16/60 Superdex 200 pg, 1 ml/min, Hepes pH 7, 100mM NaCl; calibrated with Bio-Rad gel filtration standard
protein,measurement,value
"CouO, C-methyltransferase from Streptomyces rishiriensis (enzyme, CouO, SAM-dependent C-methyltransferase of coumermycin A1 biosynthesis, Streptomyces rishiriensis; expected MW 26 kDa; also called CouO-WT; source: purified (last step size exclusion chromatography)) MKIEPITGSEAEAFHRMGSRAFERYNEFVDLLVGAGIADGQTVVDLCCGSGELEIILTSRFPSLNLVGVDLSEDMVRIARDYAAEQGKELEFRHGDAQSPAGMEDLLGKADLVVSRHAFHRLTRLPAGFDTMLRLVKPGGAILNVSFLHLSDFDEPGFRTWVRFLKERPWDAEMQVAWALAHYYAPRLQDYRDALAQAADETPVSEQRIWVDDQGYGVATVKCFARRAAA",stoichiometry N,2
